The values below come from patent US20250051473A1 (IGM BIOSCIENCES, published 2025).

The term EC50 (read off the curve) denotes the concentration at which the effect is half-maximal.

The target of assay [1] is T1, recombinant human CD38 extracellular domain protein (ACROBiosystems, Cat #CD8-H5224) (human, UniProt P28907 43-300).
T1 construct: Bought protein; also called recombinant human CD38 protein
Put plainly: ELISA, plate coated with recombinant human CD38 extracellular domain, HRP anti-human kappa detection, chemiluminescence (RLU).

The target in assay [2] is T2, recombinant cynomolgus monkey CD38 extracellular domain protein (ACROBiosystems) (cynomolgus monkey, UniProt Q5VAN0 44-301).
T2 construct: Bought extracellular domain protein; also called cyno CD38; recombinant cyno CD38
As to the kind of experiment: ELISA, plate coated with recombinant cynomolgus CD38 extracellular domain, HRP anti-human kappa detection, chemiluminescence (RLU). On the technique in general: ELISA stands for enzyme-linked immunosorbent assay.

Assay [3] concerns the target cell surface human CD38 on NCI-H929 myeloma cells (human, UniProt P28907 1-300). Put plainly: flow cytometry on NCI-H929 cells, AF488 anti-human kappa secondary antibody, median FL-1. Background: A flow cytometer gives signals particle by particle.
The target of assay [4] is T3, mouse CD38 (ACROBiosystems, CD8-M5223) (mouse, UniProt P56528 45-304).
T3 construct: Bought recombinant protein, coated on the ELISA plate
T3 sequence (looked up): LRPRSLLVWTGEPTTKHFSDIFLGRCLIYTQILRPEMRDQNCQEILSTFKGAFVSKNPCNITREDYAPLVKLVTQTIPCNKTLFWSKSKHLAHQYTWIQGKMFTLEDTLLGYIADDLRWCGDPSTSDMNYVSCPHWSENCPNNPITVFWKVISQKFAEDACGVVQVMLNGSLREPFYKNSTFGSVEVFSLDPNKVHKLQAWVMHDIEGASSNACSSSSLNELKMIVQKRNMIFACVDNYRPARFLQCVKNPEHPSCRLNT
Put plainly: ELISA, antigen coated at 1 µg/mL, serial dilutions of IgM.

Assay [5] addresses T4, human CD157 protein (SinoBiological, 10060-H08H) (human, UniProt Q10588 33-292).
T4 construct: Bought recombinant protein, coated on the ELISA plate
T4 sequence (looked up): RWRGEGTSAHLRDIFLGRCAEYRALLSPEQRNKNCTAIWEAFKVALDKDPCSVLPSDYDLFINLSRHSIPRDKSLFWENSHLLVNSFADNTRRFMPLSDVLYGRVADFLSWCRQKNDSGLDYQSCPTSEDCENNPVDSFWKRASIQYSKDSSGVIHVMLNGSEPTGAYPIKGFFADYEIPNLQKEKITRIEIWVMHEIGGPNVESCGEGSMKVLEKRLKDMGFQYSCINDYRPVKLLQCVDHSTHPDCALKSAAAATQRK
The assay is described as above.

For assay [6], the target named is T1, recombinant human CD38 extracellular …. As to the kind of experiment: ELISA, plate coated with 1 ug/mL recombinant human CD38, HRP anti-human kappa detection, chemiluminescence (RLU).

B1: IgM H-1 (bispecific antibody)
VH: QVPLHQSGPELIKPGASLKISCKASDSAFNNSWMNWVRQRPGKGLEWIGWIYPGDDDTKYNGKFMGKATLTADKSSGTAYMQLSSLTSEDSAVYFCARGRWGMDYWGQGTSVTVSS
VL: DIVMTQFHNFMSTSVGDRVNINCKASQNVVTAVAWYQQKPGQSPKLLIYWASTRHTGVPDRFTGSGSGTDFTLTISNVQSEDLADYFCQQYSNYPFTFGSGTKLEIK
chain: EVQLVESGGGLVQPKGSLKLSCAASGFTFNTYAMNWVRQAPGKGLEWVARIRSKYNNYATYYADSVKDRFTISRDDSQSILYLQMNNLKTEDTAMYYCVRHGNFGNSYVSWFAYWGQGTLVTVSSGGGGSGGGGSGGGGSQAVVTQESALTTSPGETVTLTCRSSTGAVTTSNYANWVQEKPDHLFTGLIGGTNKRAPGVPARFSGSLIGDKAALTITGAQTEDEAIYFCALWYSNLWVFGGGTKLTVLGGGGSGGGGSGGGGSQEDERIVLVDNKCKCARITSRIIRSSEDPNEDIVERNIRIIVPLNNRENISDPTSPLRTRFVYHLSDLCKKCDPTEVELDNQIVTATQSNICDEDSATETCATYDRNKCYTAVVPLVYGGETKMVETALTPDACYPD
notes: Constant regions not specified; also called chimeric CD38 × CD3 IgM antibody of Clone H
Take B1: the binding result in assay [1], in assay [2] and in assay [3] was “binds” throughout.

B2: IgM E-1 (bispecific antibody)
VH: QVQLQQSGAELVRPGTSVKMSCKAAGYTFTNHWIEWVKQRPGHGLEWIGDIFPGGGYTDYNEKFKGKATLTADTSSSTAYMQLSSLTSEDSAIYYCARGRDLAMDYWGQGTSVTVSS
VL: DIQMNQSPSSLSASLGDTITITCHASQNINVWLGWYQQKPGNIPKLLIYKASNLHTGVPSRFSGSGSGTGFTLTISSLQPEDIATYYCQQGQSYPYTFGGGTKLEIK
chain: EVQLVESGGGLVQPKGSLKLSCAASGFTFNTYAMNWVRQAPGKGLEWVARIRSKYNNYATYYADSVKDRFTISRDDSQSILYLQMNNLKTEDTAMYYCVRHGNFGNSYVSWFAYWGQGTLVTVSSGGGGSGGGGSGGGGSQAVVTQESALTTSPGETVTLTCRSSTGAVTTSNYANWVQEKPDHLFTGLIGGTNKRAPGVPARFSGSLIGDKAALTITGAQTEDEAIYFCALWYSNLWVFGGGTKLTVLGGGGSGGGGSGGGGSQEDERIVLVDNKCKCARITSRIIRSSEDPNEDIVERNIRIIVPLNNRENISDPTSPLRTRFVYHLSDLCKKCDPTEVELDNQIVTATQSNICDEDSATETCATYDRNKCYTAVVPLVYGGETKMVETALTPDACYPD
notes: Constant regions not specified; also called chimeric CD38 × CD3 IgM antibody of Clone E
On to B2, for which the binding result in assay [1], in assay [2] and in assay [3] was “binds” throughout.

B3: IgM A-1 (bispecific antibody)
VH: QVQLQQSGAELVKPGASVKISCKASGYTFSNYWIEWVKQRPGLGLEWIGDILPGSGTTNYNEKFKGKATFTADTSSNTAYMQLSSLTSEDSAVYYCAGYGNYLWFTYWGQGTLVTVSA
VL: DIQMNQSPSSLSASLGDTITITCHASQNINVWLSWYQQKPGNIPKLLIYKASNLHTGVPSRFSGSGSGTGFTLTISSLQPEDIATYYCQQGQSYPYTFGGGTKLEIK
chain: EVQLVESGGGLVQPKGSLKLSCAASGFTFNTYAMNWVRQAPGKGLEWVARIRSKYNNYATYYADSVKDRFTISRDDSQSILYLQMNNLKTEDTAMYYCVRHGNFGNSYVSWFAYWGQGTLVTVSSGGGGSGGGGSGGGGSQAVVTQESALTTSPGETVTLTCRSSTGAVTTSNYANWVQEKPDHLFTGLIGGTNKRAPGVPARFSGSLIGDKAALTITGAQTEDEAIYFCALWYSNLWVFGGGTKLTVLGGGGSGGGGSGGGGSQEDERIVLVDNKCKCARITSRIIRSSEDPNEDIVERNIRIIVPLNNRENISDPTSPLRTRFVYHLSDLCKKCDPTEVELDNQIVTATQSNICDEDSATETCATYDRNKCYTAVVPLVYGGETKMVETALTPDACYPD
notes: The IgM heavy chain constant region and the light chain constant region used are not specified; also called chimeric CD38 × CD3 IgM antibody of Clone A
Regarding B3, the figures for the “EC50 (read off the curve)” value in assay [1], in assay [2] and in assay [3] were ~0.2 µg/mL, ~0.2 µg/mL and ~2 nM, respectively.

B4: IgM E-2 (bispecific antibody)
VH: QVQLVQSGAEVKKPGSSVKVSCKASGYTFTNHWIEWVRQAPGQGLEWMGDIFPGGGYTDYNEKFKGRVTITADESTSTAYMELSSLRSEDTAVYYCARGRDLAMDYWGQGTLVTVSS
VL: DIQMTQSPSSLSASVGDRVTITCHASQNINVWLGWYQQKPGKAPKLLIYKASNLHTGVPSRFSGSGSGTDFTLTISSLQPEDFATYYCQQGQSYPYTFGQGTKVEIK
chain: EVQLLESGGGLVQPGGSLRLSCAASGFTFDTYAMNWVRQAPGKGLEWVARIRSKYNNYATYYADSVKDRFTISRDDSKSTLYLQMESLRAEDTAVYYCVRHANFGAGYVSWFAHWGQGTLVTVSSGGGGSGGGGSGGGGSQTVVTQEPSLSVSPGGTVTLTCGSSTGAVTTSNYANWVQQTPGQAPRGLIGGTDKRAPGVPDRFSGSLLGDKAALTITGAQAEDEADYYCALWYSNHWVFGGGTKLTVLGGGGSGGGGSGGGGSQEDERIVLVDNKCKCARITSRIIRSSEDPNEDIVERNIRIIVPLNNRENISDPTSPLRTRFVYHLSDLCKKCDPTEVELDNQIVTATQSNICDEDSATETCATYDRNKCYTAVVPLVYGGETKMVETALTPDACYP
notes: Constant regions not specified; also called humanized CD38 × CD3 IgM antibody
For the molecule B4, the binding result is given as “no binding” in assay [4], “no binding” in assay [5] and “binds” in assay [6].

B5: IgM E-4 (bispecific antibody)
VH: QVQLVQSGAEVKKPGSSVKVSCKASGYTFTNHWIEWVRQAPGQGLEWMGDIFPGGGYTDYNEKFKGRVTITADESTSTAYMELSSLRSEDTAVYYCARGRDLAMDYWGQGTLVTVSS
VL: DIQMTQSPSSLSASVGDRVTITCHASQNINVWLGWYQQKPGKAPKLLIYKASNLHTGVPSRFSGSGSGTDFTLTISSLQPEDFATYYCQQGQSYPYTFGQGTKVEIK
chain: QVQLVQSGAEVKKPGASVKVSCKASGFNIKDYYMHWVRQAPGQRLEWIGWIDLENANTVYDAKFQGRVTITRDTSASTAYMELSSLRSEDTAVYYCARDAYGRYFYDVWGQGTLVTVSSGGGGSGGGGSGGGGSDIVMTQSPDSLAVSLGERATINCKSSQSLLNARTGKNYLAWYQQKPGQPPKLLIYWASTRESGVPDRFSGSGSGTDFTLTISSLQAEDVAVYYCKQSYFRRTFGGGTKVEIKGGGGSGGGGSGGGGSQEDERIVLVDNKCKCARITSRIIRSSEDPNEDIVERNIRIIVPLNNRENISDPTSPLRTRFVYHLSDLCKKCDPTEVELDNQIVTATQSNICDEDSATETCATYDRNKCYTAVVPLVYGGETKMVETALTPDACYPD
notes: as for B4
As for B5, the binding result was “no binding” in assay [4], “no binding” in assay [5] and “binds” in assay [6].

B6: IgM B-2 (bispecific antibody)
VH: QVQLVQSGAEVKKPGSSVKVSCKASGYTFTSYNMHWVRQAPGQGLEWMGYIYPGNGGTNYNQKFKGRVTITADESTSTAYMELSSLRSEDTAVYYCARGASMITTGAWFAYWGQGTLVTVSS
VL: DIQMTQSPSSVSASVGDRVTITCRASESLDTYGNSFMYWYQQKPGKAPKLLIYLASSLESGVPSRFSGSGSGTDFTLTISSLQPEDFATYYCHQNHEDPWTFGQGTKVEIK
chain: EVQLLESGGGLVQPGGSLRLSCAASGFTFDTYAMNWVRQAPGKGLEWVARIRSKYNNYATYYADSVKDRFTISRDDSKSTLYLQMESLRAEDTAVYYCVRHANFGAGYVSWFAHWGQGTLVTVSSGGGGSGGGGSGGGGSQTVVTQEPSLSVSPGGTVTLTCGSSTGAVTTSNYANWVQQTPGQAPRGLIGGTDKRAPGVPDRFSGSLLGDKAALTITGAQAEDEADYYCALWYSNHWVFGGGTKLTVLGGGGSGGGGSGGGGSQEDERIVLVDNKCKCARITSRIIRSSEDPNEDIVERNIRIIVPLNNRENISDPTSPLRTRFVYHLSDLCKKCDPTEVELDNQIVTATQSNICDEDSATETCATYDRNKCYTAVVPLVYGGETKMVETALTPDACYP
notes: IgM and light chain constant regions not specified; also called humanized CD38 × CD3 IgM antibody
In the case of B6, the binding result is given as “no binding” in assay [4], “no binding” in assay [5] and “binds” in assay [6].

B7: IgM B-4 (bispecific antibody)
VH: QVQLVQSGAEVKKPGSSVKVSCKASGYTFTSYNMHWVRQAPGQGLEWMGYIYPGNGGTNYNQKFKGRVTITADESTSTAYMELSSLRSEDTAVYYCARGASMITTGAWFAYWGQGTLVTVSS
VL: DIQMTQSPSSVSASVGDRVTITCRASESLDTYGNSFMYWYQQKPGKAPKLLIYLASSLESGVPSRFSGSGSGTDFTLTISSLQPEDFATYYCHQNHEDPWTFGQGTKVEIK
chain: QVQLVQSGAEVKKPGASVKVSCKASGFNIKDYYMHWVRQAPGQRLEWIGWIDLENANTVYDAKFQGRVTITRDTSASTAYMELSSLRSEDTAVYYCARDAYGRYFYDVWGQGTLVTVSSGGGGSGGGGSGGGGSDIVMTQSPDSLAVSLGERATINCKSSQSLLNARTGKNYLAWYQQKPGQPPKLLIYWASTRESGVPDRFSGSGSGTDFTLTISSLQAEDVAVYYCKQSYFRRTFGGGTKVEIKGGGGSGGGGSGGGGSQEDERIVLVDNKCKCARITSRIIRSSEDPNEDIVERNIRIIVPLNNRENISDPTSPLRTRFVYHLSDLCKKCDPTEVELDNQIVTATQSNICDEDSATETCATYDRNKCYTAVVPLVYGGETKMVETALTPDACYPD
notes: as for B4
As to B7, the binding result is reported as “no binding” in assay [4], “no binding” in assay [5] and “binds” in assay [6].

B8: IgM F-1 (bispecific antibody)
VH: EVQLQQSGAEFVRPGASVKLSCTASGFNIKDSLMHWVKQRPEQGLEWIGWIDPEDDKTKYAPKFQDEATLTADTSSNTAYLHLSSLTSEDTAIYYCARRFLRGFAYWGQGTLVTVSA
VL: DIVMTQSPSSLSVSAGEKVTMSCKSSQSLLNSGNQKNYLAWYQQKPGQPPKLLIYGASTRESGVPDRFTGSGSGTDFTLTISSVQAEDLAVYYCQNDHSYPYTFGGGTKLEIK
chain: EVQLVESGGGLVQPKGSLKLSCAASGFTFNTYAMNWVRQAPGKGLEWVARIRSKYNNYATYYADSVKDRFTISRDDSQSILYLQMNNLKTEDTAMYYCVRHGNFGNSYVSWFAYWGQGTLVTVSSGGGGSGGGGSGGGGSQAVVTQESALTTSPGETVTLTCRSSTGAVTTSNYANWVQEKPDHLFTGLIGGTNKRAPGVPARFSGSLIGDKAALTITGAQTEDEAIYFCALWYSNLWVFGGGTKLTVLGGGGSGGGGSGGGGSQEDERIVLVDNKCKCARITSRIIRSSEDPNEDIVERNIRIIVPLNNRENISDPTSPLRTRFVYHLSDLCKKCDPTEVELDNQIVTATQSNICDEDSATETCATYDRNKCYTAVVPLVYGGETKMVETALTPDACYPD
notes: Constant regions not specified; also called chimeric CD38 × CD3 IgM antibody of Clone F
Consider B8, for which the binding result in assay [1], in assay [2] and in assay [3] was “binds” in each case.

B9: IgM OKT10-2 (bispecific antibody)
VH: EVQLLESGGGLVQPGGSLRLSCAASGFDFSRSWMNWVRQAPGKGLEWVSEINPDSSTINYATSLKDRFTISRDNSKNTLYLQMNSLRAEDTAVYYCARYGNWFPYWGQGTLVTVSS
VL: DIQMTQSPSSLSASVGDRVTITCKASQNVDTNVAWYQQKPGKAPKALIYSASYRYSGVPSRFSGSGSGTDFTLTISSLQPEDFATYYCQQYDSYPLTFGQGTKVEIK
chain: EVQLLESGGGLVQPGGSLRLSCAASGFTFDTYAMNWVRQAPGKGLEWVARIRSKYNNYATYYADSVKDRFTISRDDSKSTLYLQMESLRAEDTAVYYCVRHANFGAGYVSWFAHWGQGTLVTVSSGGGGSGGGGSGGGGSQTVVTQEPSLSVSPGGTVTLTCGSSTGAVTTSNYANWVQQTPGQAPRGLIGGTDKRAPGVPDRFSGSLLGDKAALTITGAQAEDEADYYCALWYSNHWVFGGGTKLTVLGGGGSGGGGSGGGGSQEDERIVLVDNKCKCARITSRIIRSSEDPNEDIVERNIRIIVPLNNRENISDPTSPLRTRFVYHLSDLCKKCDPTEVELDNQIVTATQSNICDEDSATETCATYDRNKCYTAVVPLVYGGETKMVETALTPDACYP
notes: as for B4
For B9, the binding result in assay [4] and in assay [5] was “no binding” in each case. Also, the “EC50 (read off the curve)” value in assay [6] is ~0.3 µg/mL.

B10: IgM OKT10-4 (bispecific antibody)
VH: EVQLLESGGGLVQPGGSLRLSCAASGFDFSRSWMNWVRQAPGKGLEWVSEINPDSSTINYATSLKDRFTISRDNSKNTLYLQMNSLRAEDTAVYYCARYGNWFPYWGQGTLVTVSS
VL: DIQMTQSPSSLSASVGDRVTITCKASQNVDTNVAWYQQKPGKAPKALIYSASYRYSGVPSRFSGSGSGTDFTLTISSLQPEDFATYYCQQYDSYPLTFGQGTKVEIK
chain: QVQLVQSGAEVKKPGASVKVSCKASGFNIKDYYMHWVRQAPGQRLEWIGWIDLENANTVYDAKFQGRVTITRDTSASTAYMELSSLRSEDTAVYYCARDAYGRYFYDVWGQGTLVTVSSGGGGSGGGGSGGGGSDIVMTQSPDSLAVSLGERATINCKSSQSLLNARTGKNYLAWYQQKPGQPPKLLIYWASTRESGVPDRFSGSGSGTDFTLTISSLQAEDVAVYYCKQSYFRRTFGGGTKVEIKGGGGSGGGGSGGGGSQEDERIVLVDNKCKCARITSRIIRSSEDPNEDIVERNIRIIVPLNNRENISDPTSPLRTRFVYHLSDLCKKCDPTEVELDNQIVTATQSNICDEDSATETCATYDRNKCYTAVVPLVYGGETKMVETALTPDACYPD
notes: as for B4
On to B10, for which the binding result in assay [4] is recorded as “no binding”; in assay [5], “no binding”; in assay [6], “binds”.
